± gives the uncertainty stated by the source.
Experiment: protein stability index of a GFP-peptide fusion (yeast GPS) (PSI 1-4); higher = more stable; sorted into four equal gates, so the index is relative within each strain
Outline: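 Peptides tiling yeast proteins in 17-residue segments were fused downstream of GFP, with Cherry expressed from the same plasmid. As a pooled library in yeast, mid-log cultures grown in leucine-free medium were sorted into four equal gates by GFP/Cherry fluorescence ratio. Gate plasmids were PCR-amplified and Illumina-sequenced, and barcodes linked reads to strains. Each peptide received a protein stability index equal to the sum of each gate's read frequency times its gate number.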

Sequence	protein stability index (doa10∆)	protein stability index (pdr5∆)	protein stability index (san1∆)	protein stability index (ubr1∆)
QTRAKLLDNEIRIFRSE [RPT5]	3.15 ± 0.12	3.37 ± 0.093	3.22 ± 0.051	2.95 ± 0.056
SQPTAAGGPDMTTPQNI [DSN1]	1.82 ± 0.065	1.9 ± 0.063	1.89 ± 0.1	1.36 ± 0.053
EDMIDQVSKKLSSIEAS [SMC3]	3.07 ± 0.16	2.54 ± 0.15	2.84 ± 0.12	3.05 ± 0.12
KTNFQDVILDYQTKKFY [REC8]	1.62 ± 0.072	1.59 ± 0.051	1.16 ± 0.096	1.24 ± 0.039
DWEKYKAPLEDDDKKPD [RPT1]	3.16 ± 0.12	3.56 ± 0.19	2.96 ± 0.21	3.31 ± 0.16
YAIKKKDELERVAKSNR [RPS5]	3.41 ± 0.061	3.35 ± 0.073	3.44 ± 0.043	3.23 ± 0.068
KDYSQILKEEFPKIDSL [RPN5]	–	2.35 ± 0.24	–	–
LKNCKISNINIPISSET [SMC1]	2.81 ± 0.17	2.95 ± 0.11	3.05 ± 0.08	2 ± 0.067
NVSFVLPDEKSDAMSID [YCG1]	3.31 ± 0.072	3.3 ± 0.051	3.25 ± 0.052	3.21 ± 0.067
KGSRFISTLQVKLYGRE [RPB2]	2.06 ± 0.065	2.3 ± 0.057	2.58 ± 0.089	2.37 ± 0.056
KLALGIALEGYRLDIIE [RPN2]	2.51 ± 0.15	1.77 ± 0.11	–	2.19 ± 0.083
RDRTSGQKLLAIKYGYE [SRB4]	2.9 ± 0.15	3.17 ± 0.11	3.11 ± 0.084	3.23 ± 0.096
NRQQKKRRFDPSSSDSN [RRP6]	2.77 ± 0.056	2.69 ± 0.078	3.05 ± 0.053	3.19 ± 0.067
ERSSKRLAKKPSMKKIK [SIR3]	3.18 ± 0.08	3.12 ± 0.084	3.06 ± 0.057	3.06 ± 0.079
TTKERKKSRLGNSFHLM [PRP8]	2.7 ± 0.066	2.83 ± 0.065	2.57 ± 0.062	2.48 ± 0.054
NMVRNNNNNTIDESMPD [GRR1]	2.83 ± 0.057	3.12 ± 0.061	3.02 ± 0.074	3.12 ± 0.052
YVLSTAVEFESVPLRKG [BRR2]	1.7 ± 0.043	1.45 ± 0.04	1.93 ± 0.083	1.34 ± 0.036
DEEYPVKVKVSYQKLLK [PRP8]	3.03 ± 0.091	1.86 ± 0.078	1.91 ± 0.15	2.6 ± 0.054
IAASAFLSLLNLATKGM [REC8]	1.54 ± 0.054	1.52 ± 0.054	1.71 ± 0.1	1.62 ± 0.046
NLFKINSIDVPIRINST [YMR129W/POM152]	1.89 ± 0.044	2.2 ± 0.042	2.02 ± 0.058	2.17 ± 0.033
SENRNNIKSSISNGNLA [YOR098C/NUP1]	–	3.65 ± 0.24	2.96 ± 0.22	3.17 ± 0.24
FGNSLICEDPETAKKIT [SMC2]	2.82 ± 0.1	2.74 ± 0.084	2.62 ± 0.24	2.91 ± 0.075
QLVPIRLEFDQDRDRFF [SNF5]	3.14 ± 0.13	2.98 ± 0.16	2.98 ± 0.24	3.1 ± 0.078
VSVRKHLERNRKDKDAK [RPS13]	3.38 ± 0.16	3.31 ± 0.095	–	3.28 ± 0.099
REKRAREKAEAEAEKKK [RPL13A]	–	3.62 ± 0.13	3.31 ± 0.061	–
ERGQKVKNVKNSDLEFN [ARP9]	3 ± 0.18	1.96 ± 0.09	2.17 ± 0.18	1.25 ± 0.072
PKNFGIGQAVQPKRNLS [RPL8A]	2.74 ± 0.064	2.74 ± 0.056	2.78 ± 0.043	2.69 ± 0.05

Sequence	protein stability index (doa10∆)	protein stability index (pdr5∆)	protein stability index (san1∆)	protein stability index (ubr1∆)
FVSYFGKQIKSTIYNWG [YML103C/NUP188]	1.67 ± 0.11	1.39 ± 0.071	1.47 ± 0.099	1.6 ± 0.066
IPTKESLTRDFEQCCKE [YIL149C/MLP2]	2.81 ± 0.078	2.96 ± 0.13	2.62 ± 0.088	2.88 ± 0.13
LYFYRDPEEVEQQVAEE [RPS0A]	3.31 ± 0.087	3.31 ± 0.095	3.1 ± 0.082	3.56 ± 0.076
TFTFTAHMGVLLVLLQD [SWP82]	1.71 ± 0.044	1.32 ± 0.044	1.41 ± 0.087	1.42 ± 0.035
YDRNSNNNHKDKKLLRR [SWI1]	3.09 ± 0.053	3.17 ± 0.05	3.06 ± 0.06	3.23 ± 0.041
LKSASKETAPVIDTLAA [RPL28]	2.07 ± 0.072	2.41 ± 0.11	2.68 ± 0.073	2.12 ± 0.087
DTICQSIQEQIQEFQGN [SNF5]	3.27 ± 0.073	3.44 ± 0.1	3.36 ± 0.076	3.6 ± 0.075
TPPAIEHKPVSPDKIGT [SSN2]	3.03 ± 0.072	3.35 ± 0.066	3.12 ± 0.076	3.17 ± 0.06
LLKKKDDPSKVRLLCRS [YLR335W/NUP2]	2.12 ± 0.047	1.85 ± 0.063	1.98 ± 0.089	2.61 ± 0.15
GRVKYTKRQKHFAWLPT [POP1]	2.27 ± 0.051	2.48 ± 0.081	2.3 ± 0.084	2.55 ± 0.039
ESVIEQIVKYARKGLTP [RPS13]	3.13 ± 0.058	2.94 ± 0.073	2.76 ± 0.052	2.81 ± 0.044
VRQKIKTLKRMIKESST [POP1]	1.47 ± 0.039	1.68 ± 0.052	1.45 ± 0.081	1.93 ± 0.044
SFSLTTFSPSGKLGQID [PRE8]	3 ± 0.14	2.67 ± 0.1	3.01 ± 0.074	3.08 ± 0.073
ELLSKYKEQIIQGFYWA [SNU114]	2.99 ± 0.073	2.4 ± 0.067	2.47 ± 0.077	2.17 ± 0.085
SFTYELKQHNQNNLPPN [BRR2]	2.95 ± 0.094	3.21 ± 0.087	2.78 ± 0.1	2.9 ± 0.12
DLKPANIMVTIDGCVKI [SSN3]	2.58 ± 0.29	1.83 ± 0.16	–	1.69 ± 0.25
QALQMKAMDIPIGRHEE [SWP82]	2.86 ± 0.22	2.29 ± 0.13	–	2.08 ± 0.062
EDFQKRQQKLLEDQQRQ [SWI1]	3.21 ± 0.11	3.16 ± 0.051	3.14 ± 0.057	3.19 ± 0.047
RTKNLVSKMEKAEKTLK [SMC4]	2.91 ± 0.22	3.1 ± 0.056	3.21 ± 0.065	3.09 ± 0.058
LQDEVMNIKPVQKQTRA [RPS2]	2.91 ± 0.2	3.12 ± 0.18	2.42 ± 0.14	3.63 ± 0.19
TSQHSDSLTQNNNNAPI [YOR098C/NUP1]	2.72 ± 0.051	2.95 ± 0.036	2.94 ± 0.043	2.88 ± 0.031
KSVRILKNKAEYLKNCP [RPC40]	3.13 ± 0.066	3.19 ± 0.064	3.12 ± 0.049	3.15 ± 0.046
ESFKGLQPFWFRVNNAS [ECM29]	2.05 ± 0.13	1.92 ± 0.11	–	2.09 ± 0.15
DWVRFLALALGILYMGQ [RPN1]	1.36 ± 0.096	1.45 ± 0.086	2.08 ± 0.14	1.24 ± 0.18
PNIVEIDLDNDEDDDED [DLS1]	3.17 ± 0.084	3.29 ± 0.065	2.89 ± 0.1	3.04 ± 0.15
KVAKRTKIKPFIKVVNY [RPL27A]	2.9 ± 0.09	2.8 ± 0.096	2.86 ± 0.06	2.64 ± 0.076
